Laboratory results: a protein production outcome set (Wang et al. 2014)

Assay: label from the status in PepcDB records
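Further: failed if final PepcDB status was selected cloned or expressed and not failed if soluble or beyond.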

Sequence: MKNVGDLMQRLQKMMPAHIKPAFKTGEELLAWQKEQGAIRSAALERENRAMKMQRTFNRSGIRPLHQNCSFENYRVECEGQMNALSKARQYVEEFDGNIASFIFSGKPGTGKNHLAAAICNELLLRGKSVLIITVADIMSAMKDTFRNSGTSEEQLLNDLSNVDLLVIDEIGVQTESKYEKVIINQIVDRRSSSKRPTGMLTNSNMEEMTKLLGERVMDRMRLGNSLWVIFNWDSYRSRVTGKEY
- protein production: failed

Sequence: MKNVKFIKKSESVIGLWLPILVILILFAFLVAESVIMKDIILSNSVVALATAIMASAALVTILVSNRQVQLMARQQRLKAIEDRLEKFYIPLIKAFSSYVYTAQTEDEIETIITCRRYLAGNNLLRVLPMHFKFKADKIAGSANWTFYAKEDFEQWKEALDVLWEEFLEVLKEYYTLSGTEISLPEKPDWLIGYK
- protein production: failed

Sequence: MKNVLYTLFAISICLMLGKLANYLLAALPASLYGMIIYALFLQLNWFSPDKITKTNQWFIKHMGVCLVPAGMGIINHFQLIQQHGIALVVIIFSSTFILLTVIGYLSERYLITPDNIKSKAPTGSR
- protein production: failed

Sequence: MKPADLTNADRIALELGHAGRNAIPYLDDDRNADRPFTLNTYRPYGYTPDRPVVVVQHGVLRNGADYRDFWIPAADRHKLLIVAPTFSDEIWPGVESYNNGRAFTAAGNPRHVDGWTYALVARVLANIRAAEIADCEQVYLFGHSAGGQFVHRLMSSQPHAPFHAVTAANPGWYTLPTFEHRFPEGLDGVGLTEDHLARLLAYPMTILAGDQDIATDDPNLPSEPAALRQGPHRYARARHYYEAGRRAAAQRGLPFGWQLQVVPGIGHDGQAMSQVCASLWFDGRMPDAAELARLAGSQSA
- protein production: failed

Sequence: MKPALHAIDATLPAPPTYTPAGNECALFEHAWKRRVPLLLKGPTGCGKTRFVAHMAARLGLPLFTVSCHDDLTAADLTGRYLLKGGETVWVDGPLTRAVRQGGICYLDEVVEARKDVAVVLHPLADDRRVLPLERTGEELQAPPHFMLVVSYNPGYQSLLKALKPSTRQRFAAIEFGFLAPEQEIAVVAAESGLPSERVAPLVALAGRLRKLKGHDLEEGVSTRLLVYCASLISEGLPVRDAVLAGLIEPLTDDADVKAALIEVAGVVIGLEHHHHHH
- protein production: not failed

Sequence: MKPDDLPSDVSSDPLLRLRRQISDEASQCVACGLCVPHCPSYRVTLSEADSPRGRIALMSGVAAGRIPMNARFALHMDRCLTCRACEAVCPNHVRFGELIDDAREMISSPPLEFGGNNPGARVSSFRKWVERELIARPSRIDALRPLLRFYQRSGLQKWVRKSGLLGKTKLALLEAQIPFIDQPRSSSWSVVYPAVGKPRGEVGLFLGCVARVADATTLDAALFVLNQLGYVVHVPTGQTCCGALHQHRGDMDAAAQLERQNVEAFAGLDLGAIITTASGCGAQLSEYSSFSGSQRTTRAPAVSSQAGGETTRRSPPKVLDISEFLAEAEGWEDARFQPLPHKILVHEPCTLRNVLRASTYAYKLLERIPQAQVVPLAGNDQCCGAAGTYFLDQPEISAALLEDKVTALKAGQACYLATSNVGCALHIAAGLRRPGLGIEVIHPVTLIARQMGMQSQSLK
- protein production: failed

Sequence: MKPEHRMDTISKLEEGAETPVTGRVMKISSPRTFTTRKGREGKLANVIIADDTGELRAVFWTENIKLLKKFREGDVIRIKDVNIRGGFGGRKEAHLMPRSTVEVLDPLEHHHHHH
- protein production: not failed

Sequence: MKPGGTVRALDRLGSAEYPSSHMEVLVAEGTRPSRQRNQAAAAAAGEILYFLDDDSLTSPDFLARAAAHLADPSIAAVGGPSLTPASDSRFQRAIGVVLASRLGGGGARNRYRATGSPRRTSERELILCNLAMRRDVFLAEGGLDERLYPNEENELMDRISKRGMSLVHDPDLAVRRSQRPTFRAFVRQFFGYGRGRGEQTRIAGVRSVVDFLPTVFLIYLLLLPVAPWAPCFLPAALYGAAVMVSALSGAVHSRLYAALPWLVVLYPTLHLCYGAGLLKGLLAPRFRSGGGETAPVTIRCVKEFGTPWHLPAHGPREVPR
- protein production: failed

Sequence: MKPKVFITREIPEVGIKMLEDEFEVEVWGDEKEIPREILLKKVKEVDALVTMLSERIDKEVFENAPKLRIVANYAVGYDNIDIEEATKRGIYVTNTPDVLTDATADLAFALLLATARHVVKGDRFVRSGEWKKRGVAWHPKWFLGYDVYGKTIGIIGLGRIGQAIAKRAKGFNMRILYYSRTRKEEVERELNAEFKPLEDLLRESDFVVLAVPLTRETYHLINEERLKLMKKTAILINIARGKVVDTNALVKALKEGWIAGAGLDVFEEEPYYNEELFKLDNVVLTPHIGSASFGAREGMAELVAKNLIAFKRGEIPPTLVNREVIKIRKPGFE
- protein production: not failed

Sequence: MKPNEVQIQLERLFRTPIEHPDSSKTAPIAISDLFVQIDPAAGEVQLFNDKDEELHRVVIYDWIQEGRTEIPSAMRQELRAAVKRLHAARFFDKDQFVRPFSVALTQEDFTIIEELLFIDDELIQLDSALLENLDEELNNFLAELLPDIKLEHHHHHH
- protein production: not failed

Sequence: MKPNFKNIDIYAGFQPQNGMEWQKENGITADWKTPEHINVKPVYTKEDLEGMEHLNYVAGIPPYLRGPYSMMYTFRPWTIRQYAGFSTAEESNAFYRRNLASGQKGLSVAFDLPTHRGYDPDHERVVGDVGKAGVSICSLENMKVLFDGIPLNKMSVSMTMNGAVLPIMAFYINAGLEQGAKLEEMAGTIQNDILKEFMVRNTYIYPPAFSMKIISDIFEYTSQKMPKFNSISISGYHMQEAGATADIELAYTLADGLEYLRAGVAAGIDIDAFAPRLSFFWAIGMNHFMEIAKMRAARMLWAKIVKQFNPKNPKSLALRTHSQTSGWSLTEQDPFNNVGRTCIEAMAAALGHTQSLHTNALDEAIALPTDFSARIARNTQIYIQEETYVCKNVDPWGGSYYVESLTNELAHKAWEHIQEIESLGGMAKAIETGVPKMRIEEAAARTQARIDSGAQTIVGTNKYRLEKEDPIDILEVDNTAVRLEQIENLKRLKEGRNQAEVDKALAAITECVKTGKGNLLELAVEAAHVRATLGEISDACETIVGRYKAVIRTISGVYSSESKKDTDFARACELTEEFAKKEGRRPRIMIAKMGQDGHDRGAKVVATGYADCGFDVDMGPLFQTPAEAARDAVENDVHVVGVSSLAAGHKTLIPQIIEELKKLGREDILVIAGGVIPAQDYDFLYKAGVVAIFGPGTSVAKAAVQIMDILLDEEE
- protein production: failed

Sequence: MKPRDTRVKPGSRVSLADWHTDGDAFVGKDKAASMARLDDDRVRLEELQELLYAEGKHRLLVVLQAMDTAGKDSTIRHVFRGVDPLGVRVANFGVPSTHELRHDYLWRVHPHVPASGEIAIFNRSHYEDVLVPRVNGAIGHAECERRYRQINDFERMLSETGTTIRKFYLHISKDEQKKRLEARRDTPKKRWKFQPGDLAVRAQWDDYRAAYDALLSATSTRHAPWHVVPADDKLARNLIVSALLIEALEGLDMRYPEPVAGVAGTPII
- protein production: not failed

Sequence: MKPRKKSVQPIGLKDITIVDDAKMKKAITAAALGNAMEWFDFGVYGFVAYALGKVFFPNADPSVQMIAALATFSVPFLIRPLGGLFFGALGDRFGRQKILAATIVIMSLSTFAIGLIPSYASIGIWAPILLLLAKMAQGFSVGGEYTGASIFVAEYAPDRKRGFLGSWLDFGSIAGFVLGAGVVVLISTVLGEEKFLDWGWRLPFFLALPLGIIGLYLRHALEETPAFQQHVDKLEQGDREGLASGPKVSFKEVATQHWRSLVTCIGVVIATNVTYYMLLTYMPSYLSHNLHYSEDHGVLIIIAIMVGMLFVQPIIGLLSDKFGRRPFIIVGSVGLLALAIPAFMLINSGVLGLIFAGLLIIAVLLNFFIGVMASTLPAMFPTHIRYSALASAFNISVLIAGLTPTLAAWLVETTNDLYMPAYYLMVIAAVGLVTGLTMKETANKPLRGAAPAASDIEEARELLQEHHDNIEQKIEDIDAQIAELEAKREKLALQHPRIE
- protein production: not failed

Sequence: MKPTLFLLAAGMGSRYGGLKQLDGLGPNGETIMDYSIYDAINAGFGKLVFVIRKDFEQDFREKIISKYEGHIPCELVFQSIDDLPEGFTCPADRTKPWGTNHAVMMGADVISEPFAVINCDDFYGRDSFQVMGKFLSALPENSKNVYSMVGFRVGNTLSESGTVSRGICSTDANNLLTSVVERTKIQRLDGEVKYIDDNGEWTATPDTTPVSMNFWGFTPDYFAYSEEFFKTFLSDPKNMENLKSEFFIPLMVDKLINDGTATVEVLDTTSKWFGVTYPEDRQSVVDKIQALVDAGEYPAKLFLEHHHHHH
- protein production: failed

Sequence: MKPVIQTFLRAAAVAGLALLAGCAGVSTTQSGAIGVDRTQYMSSLVPEQALVQEAGQQYAEIVQEARAKGLLDRDPAQLSRVRAISQRLIAQTGVFRADAANWPWEVHVLSVDEVNAWCMPGGKIAVYTGLLAHIKPTDDELAAVLGHEIAHALREHARERVSQQMATSIGLSVLSMATGSPGASDLGGKLTEVMFTLPNSRTHETEADRMGVELAARAGFDPRAAVTLWQKMGAADGNAPPEFLSTHPSASTRIGELQQALQKVLPLYEQARGQAAKLEHHHHHH
- protein production: not failed

Sequence: MKQFLITGGTGMVGSQLVNKLKNRDVHITILTRSDKQSDDPKISYVNWSKDGWMSQVPDIDVVVNLAGATLNKRWTPSYKQLIMTSRIQSTQSLVDLFSQREHKPEVLFNASAMGYYPPSLYHTYTEKYQTHPFDFLSDVVYQWERFAKRFESFGTRVVLGRFSMILSNDGGALQTMKLPYKFFVGGKLGSGFQWYSWIHINDLVRAILFTIDNPNAKGPFNMAAPIAERQNLFGYTLARVMHRPHETWVPSFLMRLALGEMSTVVLDTQKVLPNKLDALGFTFNYSNLKIAFEDLIDALEHHHHHH
- protein production: failed

Sequence: MKQILTYLLFIWILLPLKAEEKIYTVDNIPKVHLQNKMQYVCNPAGILSQQACDEIDAMLYALEQQTGIETVVAIVPSIGDKDCFEFSHQLLNQWGVGKKGKDNGLVILLVTDQRCIQFYTGYGLEGILPDAICKRIQMQEMIPYLKKGEWNQGMLAGVKAVCQRLDGSMVNDDEGRGEEGISVSMLLVVILGFITIAGVVGTLAVRASTRCPKCGKHQLQRSSTKLISNRNGVKTEDIIYTCRNCGHTVVRRQQSYDDNYRGRGGGGPFIGGFGGGSFGSGGGGGFSGGSFGGGSGGGGGAGSRFLEHHHHHH
- protein production: failed

Sequence: MKQIRLLAQYYVDLMVKLGLVRFSLLLASVLVLLAMVVQMAVTLLLSGEVENIDVVRSIFFGLLITPWAVYFLSVVVEQLEESRQRLSKLVAKLEEMRHRDLELNVQLQENIAQLNQEIADRIKAEEARVLVMSRLKEEMSRREQAQIELEQQSALLRSFLDASPDLVYYRNEEKEFSGCNRAMELLVGKSQKQLIGLTPQDVYAPDIAEKVMETDEKVFRHNVSLTYEQWLVYPDGRKACFELRKVPFYDRMGKRHGLMGFGRDITERKRYQDALENASRDKTTFISTISHELRTPLNGIVGLSRILLDTQLDLEQQKYLKTIHVSAITLGNIFNDVIEMDKQERRKVQLDNQPIDFTGFLVDLENLGGLLAEQKGLKLIMDQHQPLPQKVITDGTRLRQILWNLLSNAVKFTPKGEKGEKGEIVVRVWHEKGDRLRFEVEDSGMGIPADELEKIFAMYYQVKDQHGGKPATGSGIGLAVSKRLAQNMGGDIHVSSSQGKGSCFTLTVIAPSADEAGSGLEDDDDLPLPALHVLLVEDIELNVVVARSVLEKLGNSVDVAMTGQEALDMFDPDEFDLVLLDIQLPDMTGLDVARQLRSRYGKRSLPPLVALTANVLKDKREYLDAGMDDVLSKPLSVPALTAVIKQHWDTHTVWTEESVVEEGDEMAKVKEDLLDIPMLEQYLDLVGPKLIHQSLEMFEQMMPGYLAILDSNMTARDQKGITEEGHKIKGAAGSVGLRHLQQIAQQIQTSSLPAWWDNVQEWIDELKHDWRHDVQVLRDWVAKAEKES
- protein production: failed
